The values below come from patent publication US20200138870A1, “RECREATION OF PANCREATIC NICHE ALLOWS FOR NOVEL METHODS FOR HUMAN, MATURE BETA DERIVATION FROM PLURIPOTENT STEM CELLS” (Baylor College of Medicine, priority 2016, published 2020).

For this assay, the system named is hESC-derived EPs. Put plainly: Growth factor treatment of hESC-derived EPs for 3 days, immunofluorescence quantification of marker-positive cells. It is filed as cell-based, human. To be noted: for increase in number of ISL1+ cells: high concentration treatment; for INS+ cell numbers (in words): two concentrations. The protocol: hESC, ISL1-EGFP Hues8 and H1, were maintained under a feeder-free system on Geltrex (Invitrogen) in TeSR-E8 media (Stemcell Technologies). Cells were passaged at 70-80% confluence using TrypLE (Invitrogen). After dissociation, cells were seeded in TeSR-E8 media+10 μM Y-27632 for 24h. Differentiation was started when cells were 90% confluent. The following media and growth factors/small molecules (see also Table 3) were used: Day1: MCDB-131 media with 0.1% BSA+10 mM glucose+ActivinA and CHIR99021. Day2-3: MCDB-131 media+0.1% BSA+10 mM glucose+ActivinA. Day4-5: MCDB-131+0.1% BSA, 10 mM glucose, VitC+KGF. Day6-9: MCDB-131 2% BSA+5.5 mM glucose+Vit.C+ITS (Invitrogen)+ActivinA+KGF+RA+SANT-1+Noggin. Day10-12: MCDB-131+2% BSA+5.5 mM glucose+VitC+ITS+SANT-1+Noggin+PdBU. Day13-15: MCDB-131+2% BSA+5.5 mM glucose+VitC+ITS+Noggin+AlK5i. EPs were dissociated and seeded as 25,000 cells/well on Geltrex-coated 96-well plates in DMEM media (Invitrogen) with B27 Supplement (Thermo Fisher Scientific), later called B27 media, supplemented with 10 µM Y-27632 for 24h. Growth factors (Table 3) were added to B27 media, at two concentrations, and tested on EPs for 3 days. After 3 days, cells were PBS washed, fixed with 4% PFA/PBS for 20 min at room temperature (RT), washed twice with PBS and stained.
Cells were incubated with 5% donkey serum (Jackson ImmunoResearch Laboratories) in PBST (PBS+0.1% Triton-X) for 30 min to avoid nonspecific binding of the antibody and to permeabilize the cells. Primary antibodies, diluted in 5% donkey serum in PBST, were then added and incubated at 4° C. overnight with shaking. After primary antibody incubation, cells were washed 3 times with PBST and secondary antibodies conjugated with Alexa-Fluor Dyes (Jackson ImmunoResearch Laboratories) and diluted in 5% donkey serum in PBST were added to the cells for 30 min at RT. Then, cells were thrice washed with PBST and nuclei were stained with Dapi (Roche Diagnostics). For imaging, Leica DMI6000 or confocal Leica TCS SPE was used. Images were initially processed by LAS X software and then further analyzed and quantified using ImageJ software (NIH, W Rasband, http://rsb.info.nih.gov/ij) using cell counter plug-in. Typically, at least 5 randomly selected images were counted per condition.

Where [1] appears, read: 200 ng/ml Gremlin1, 3 days, vs untreated.

As for “HGF: growth factor (R&D), 50 or 100 ng/ml”, the “effect on the number of CHGA+ and INS+ cells (in words)” value (shortened to “effect on the number”) (3 days treatment of EPs) is given as “little or no effect”. Also, for the setting “3 days”, the “increase in number of ISL1+ cells” value is given as about 2 fold.
Turning to “IGF: growth factor (R&D), 10 or 50 ng/ml”, under “3 days treatment of EPs”, the “effect on the number” value is given as “little or no effect”. Under “3 days”, the “increase in number of ISL1+ cells” value is recorded as about 2 fold.
Regarding “THBS2: growth factor (R&D), 5 or 1 μg/ml”, the “effect on the number” value (3 days treatment of EPs) is “little or no effect”. For the same molecule, the “increase in number of ISL1+ cells” value (3 days) was about 2 fold.

B1: SERPINF1: niche-derived secreted factor (R&D), 500 ng/ml or 1 μg/ml (protein, UniProt P36955 20-418, looked up)
Pigment epithelium-derived …: QNPASPPEEGSPDPDSTGALVEEEDPFFKVPVNKLAAAVSNFGYDLYRVRSSTSPTTNVLLSPLSVATALSALSLGAEQRTESIIHRALYYDLISSPDIHGTYKELLDTVTAPQKNLKSASRIVFEKKLRIKSSFVAPLEKSYGTRPRVLTGNPRLDLQEINNWVQAQMKGKLARSTKEIPDEISILLLGVAHFKGQWVTKFDSRKTSLEDFYLDEERTVRVPMMSDPKAVLRYGLDSDLSCKIAQLPLTGSMSIIFFLPLKVTQNLTLIEESLTSEFIHDIDRELKTVQAVLTVPKLKLSYEGEVTKSLQEMKLQSLFDSPDFSKITGKPIKLTQVEHRAGFEWNEDGAGTTPSPGLQPAHLTFPLDYHLNQPFIFVLRDTDTGALLFIGKILDPRGP
Turning to B1, the “numbers of ISL1-eGFP, CHGA+, INS+ and C-peptide+ cells over untreated controls (in words)” value (“numbers … over untreated controls (in words)” below) (3 days treatment of EPs) was “increased”.

B2: WNT5B: a WNT5A paralog (protein, UniProt Q9H1J7 18-359, looked up)
Protein Wnt-5b: QLLTDANSWWSLALNPVQRPEMFIIGAQPVCSQLPGLSPGQRKLCQLYQEHMAYIGEGAKTGIKECQHQFRQRRWNCSTADNASVFGRVMQIGSRETAFTHAVSAAGVVNAISRACREGELSTCGCSRTARPKDLPRDWLWGGCGDNVEYGYRFAKEFVDAREREKNFAKGSEEQGRVLMNLQNNEAGRRAVYKMADVACKCHGVSGSCSLKTCWLQLAEFRKVGDRLKEKYDSAAAMRVTRKGRLELVNSRFTQPTPEDLVYVDPSPDYCLRNESTGSLGTQGRLCNKTSEGMDGCELMCCGRGYNQFKSVQVERCHCKFHWCCFVRCKKCTEIVDQYICK
For B2, where the note is “3 days treatment of EPs”, the “INS+ cell numbers (in words)” value is recorded as “increased INS+ cell numbers in a dose-dependent manner”.

B3: PDPN: podoplanin, a mucin-type transmembrane glycoprotein (protein, UniProt Q86YL7 23-162, looked up)
Podoplanin: ASTGQPEDDTETTGLEGGVAMPGAEDDVVTPGTSEDRYKSGLTTLVATSVNSVTGIRIEDLPTSESTVHAQEQSPSATASNVATSHSTEKVDGDTQTTVEKDGLSTVTLVGIIVGVLLAIGFIGAIIVVVMRKMSGRYSP
With B3, the “numbers … over untreated controls (in words)” value (3 days treatment of EPs) is listed as “increased”. Also, for the setting “high concentration, 3 days”, the “increase in number of CHGA+ cells” value was 3 fold and the “increase in number of INS+ cells” value turned out to be 3 fold.

B4: Endocan: niche-derived secreted factor (R&D), 1 or 5 ng/ml (protein, UniProt Q9NQ30 20-184, looked up)
Endothelial cell-specific …: WSNNYAVDCPQHCDSSECKSSPRCKRTVLDDCGCCRVCAAGRGETCYRTVSGMDGMKCGPGLRCQPSNGEDPFGEEFGICKDCPYGTFGMDCRETCNCQSGICDRGTGKCLKFPFFQYSVTKSSNRFVSLTEHDMASGDGNIVREEVVKENAAGSPVMRKWLNPR
As to B4, for the setting “3 days treatment of EPs”, the “number of CHGA+ cells (in words)” value was “significant increase”; the “numbers … over untreated controls (in words)” value is given as “increased”; the “INS+ cell numbers (in words)” value is reported as “moderate effect”.

B5: Gremlin1: a BMP antagonist upregulated in Wk17.5h and 20.1 M-E primary cells (protein, UniProt O60565 25-184, looked up)
Gremlin-1: KKKGSQGAIPPPDKAQHNDSEQTQSPQQPGSRNRGRGQGRGTAMPGEEVLESSQEALHVTERKYLKRDWCKTQPLKQTIHEEGCNSRTIINRFCYGQCNSFYIPRHIRKEEGSFQSCSFCKPKKFTTMMVTLNCPELQPPTKKKRVTRVKQCRCISIDLD
For the molecule B5, under setting [1], the “increase in CHGA+ cell numbers” value is given as 5 fold and the “increase in INS+ cell numbers” value came out at 5 fold. In addition, for the setting “3-day EP treatment, vs untreated control”, the “decrease in the number of GCG+ cells” value was determined as 3 fold.
